assay: soluble on expression in E. coli; label from the status in PepcDB or PDB records

Sequence | soluble on expression in E. coli
MSLIDLKQYEFWFLVGSQYLYGLETLKKVEQQASKIVDSLNDDPIFPSKIVLKPVLKSSSEITEIFEKANADPKCAGVIVWMHTFSPSKMWIRGLSINKKPLLHLHTQYNREIPWDTIDMDYMNLNQSAHGDREHGFIHARMRLPRKVVVGHWEEKEVREKIAKWMRVACAIQDGRMGQIVRFGDNMREVASTEGDKVEAQIKLGWSINTWGVGELAERVKAVPEREVEELLKEYREKYIMPEDEYSLKAIREQAKIEIALREFLKEKNAVGFTTTFEDLHDLPQLPGLAVQRLMEEGYGFGAEGDWKAAGLVRAIKVMGTSLPGGTSFMEDYTYHLTPGNELVLGAHMLEVCPTIAKEKPRIEVHPLSIGGKADPARLVFDGQEGPAVNASIVDMGNRFRLVVNKVLSVPIERKMPKLPTARVLWKPLPDFKRATTAWILAGGSHHTAFSTAIDVEYLIDWAEALEIEYVVIDENLDLEDFKKELRWNELYWGLLKREGHHHHHH | soluble
MSLIDRYILAIESSCDETSVAILKNEDQLLSNIIASQVESHKRFGGVVPEVASRHHVEVITLCIQDALQEAGITAGDLSAVAVTYGPGLVGALLVGMAAAKAFAWANHLPLIPVNHMAGHLMAAQSIADLQYPLLALLVSGGHTELVYVAAPGDYRIVGETRDDAVGEAYDKVGRVMGLTYPAGKEIDQLAHQGQDIYDFPRAMIKEDNLEFSFSGLKSAFINLHHNARQKGEQLRLEDLCASFQAAVLDILMVKTKKALAAYPVKTLVIAGGVAANQGLRERLKEDIKDINVVIPPLRLCGDNAGMIAYAAAVEYEKGHFAELDLNAKPSLAFEGLEEGHHHHHH | soluble
MSLIIRKLFEFENAHIVRFCSSKRCKSSIHGHSYKVEVLLESKYLDNAGMVYDFGLLKTYIRQIIDSFDHAITLFKYDDAKYLEEMKKYSSRWICLPVNVSAENFCRVFFILIDALLKQTKMVNGEQGVTLQSIIVHETRTGYAQGFREDAYSELMPKISLQDIEFSNGIKAEWNDIDFYNKLKNEEIFINPKEEGHHHHHH | soluble
MSLIKVLIVDDHALVRMGIRRLLEDMSDVDVVADAESGEQALAYVKTHSPDVVLLDMKMPGIDGWEVTRRLKKTNPNIKVIAVTAICSDPLPTRVLQLGAMGYLTKESGAEEMAAAIRKVAKGEKYLSAEIAQKMAINSLQESQDSPFDLLSEREMQVMLMITSGMNVQDIADRLFLSSKTINGYRYRMFEKLGIKNDVELTYLAMKHRIIEHPNDLSQDDEGHHHHHH | soluble
MSLILCIDVGNSHIYGGVFDGDEIKLRFRHTSKVSTSDELGIFLKSVLRENNCSPETIRKIAICSVVPQVDYSLRSACVKYFSIDPFLLQAGVKTGLNIKYRNPVEVGADRIANAIAATHSFPNQNIIVIDFGTATTFCAISHKKAYLGGAILPGLRLSADALSKNTAKLPSVEIIKTESVVGRSTIESIQSGVYYGVLGACKELIQRIHHEAFNGDQILILATGGFASLFDKQGLYDHLVPDLVLQGIRLAAMMNTAEGHHHHHH | soluble
MSLINKHVISEKIKKAIVEANIKINPEVEEIIERYEGPFSDIIKENYRVSKEEKLPLCQDTGIVEFFVFIGHEVKLEEPIEETLNRAVGEVYSEYPFRYSVVSDPLFERINTGTNTPAIVHIFQVKGKSLEIRFLVRGGGSENLTVLRMMTPTSDVEKVKEFVIEHIKEHGAKACPPLHVGIGIGGTADKALLLSKLALTKSFKERNKDPKYAGLEKELEKELNFLGIGFQGLGKGITVYSVHIEHFPTHIATLPVAVSVDCYLCRRGKVTFEDEGGSHHHHHH | soluble
MSLIPKFREFDRERHRTDYQKGMSYAEQQDFDMGFTIWFDHIEDLDLIEKDGTINRIVMMSTGLKDKNVKEIYESDIVRNLYGELYVVEWLDGSFVLTEFYNGGYDHYIIDSSTEYEVLGNIYENPELLEDDNHASNEGHHHHHH | soluble
MSLIRANAGDWKKYTFELTPDKTDENARLAIYLEEKGRIQVDMVTLMNGADRQFCGLPLRNDIGQAMVDQGLRFLRYGGTMVNAPEYRFKKMIGDRAERPPYKGHWYTYSTNGFGIEDFLHFCEKAGFMPAYAVNVEESAQDMADMIEYLNGSVDTKWGKKRAENGHPEPYGLKYLEIGNEEVIWGDIEADYQHYIDRFNDIYEAVHAKDPEVQFIHSAWWRPESPNMEKVFKALDGKAAYWDYHPWTDDLGSHVNIDRELTDMKAKFLKWNPKTSMRCAIFEENGNLHNVQRAIVHATVQNVVRRHGDFILTTCAANALQPYLQNDNGWDQGQIFFTSGQVWGMPTFYAQQMSSAHHHPLRLWSETVGELDMTATTNEARDEVILHVVNTSSEVRETQVSLSGFIPKGNMEIYTLSGELNDENLPDTPTWILPKATWKQAPGSDFTYSFPGYSYTIVVLKEGHHHHHH | not soluble
MSLIRIGHGFDVHAFGEDRPLIIGGVEVPYHTGFIAHSDGDVALHALTDAILGAAALGDIGKLFPDTDMQYKNADSRGLLREAFRQVQEKGYKIGNVDITIIAQAPKMRPHIDAMRAKIAEDLQCDIEQVNVKATTTEKLGFTGRQEGIACEAVALLIRQEGGSHHHHHH | soluble
MSLISEVVVTTRKNNRDNKAPIGVYFKDKKVIMHLFSGSHTYENLLTEDYFSVNVVPPIEIAKAVLDDEDDYLYYNDIPYLKSSYYAIFYKVIERKFVDREDKFGKNRLMILEGEEIKRIYLNNIPKPYNRADGLLVEIAVIYSRLANKNIKINEDDKKEMINDIRKYFSIIKKVGGREHKQLAEIMLRNLNLLEGHHHHHH | soluble
MSLITLTTDFGLKGPYVGEMKVAMLRINPNAKIVDVTHSVTRHSILEGSFVMEQVVKYSPKGTVHVGVIDPGVGTERRAIVIEGDQYLVVPDNGLATLPLKHIKVKSVYEIIPDKIRKFTGWEISSTFHGRDIFGPAGALIEKGIHPEEFGREIPVDSIVKLNVEPRKEGDVWILKVIYIDDFGNVILNLENYEKPRTVELLDFNLRLPYLETYGLVEKGEMLALPGSHDYLEIAVNMGSAAERLNVKVGDELRVRLLEGGSHHHHHH | soluble
MSLITTRTARQCGQADYGWLQARYTFSFGHYFDPKLLGYASLRVLNQEVLAPGAAFQPRTYPKVDILNVILDGEAEYRDSEGNHVQASAGEALLLSTQPGVSYSEHNLSKDKPLTRMQLWLDACPQRENPLIQKLALNMGKQQLIASPEGAMGSLQLRQQVWLHHIVLDKGESANFQLHGPRAYLQSIHGKFHALTHHEEKEGHHHHHH | not soluble
MSLIVKVSPKGSMDQLSQLEVDRLKKSAQSALYQLYRNCSLAVLAAGLKTDNSKALFEQYSDFDIHVLQRERGVKLELINPPEQAFVDGQIITGIQEHLFSVLRDILYISDKYDTLKHINLTNASHITNVVFDILRNARAIAPMKDPNVVVCWGGHSINAIEYQYTREVGYQLGLRELDICTGCGPGAMEGPMKGAAIGHSKQRIKNARYIGLTEPSIIAAEPPNQIVNELVILPDIEKRLEAFVRLGHGIIIFPGGAGTAEELLYILGILLNKENQETPFPLVLTGPSESADYFIKIDEFIAATLGPEAQQKYQIIIDNPAEVARVMKQGMEQVKNHRRTTGDAYQYQWGLKIEPEFQLPFIPTHDVMANLNLHFQSNKAELAANLRKAFSGIVAGNVKSETIKQIEQLGPFHIKGDPHLMELMDNLLGAFVAQHRMKLPGSAYVPCYQIVKEGHHHHHH | soluble
MSLIYTGRPMLGTERIRGLTIKIFLPLMELLGRVMGVGREEVRHSFIKVNNELVRSRGGRYTPDELLILVPHCLQSSRCEIRLTYDMNHCKRCGKCPIRDLLALRDRYGVSLAIATGGTIARRIVVQTRPKLIIAVACERDLASGIQDTHPIPVYGVLNERPNGPCLDTLVPMQRLEAALRHFLRDVPVSAGGAPDESRRGRDAAAAFGKAQGPECRVTQGSSQRRGSDGEGHHHHHH | not soluble
MSLKAPYTIGWANIYSVPTWMKQTEGTITAEVEELKKAGLVRDLMITDAQGNAQTQIQHIQSMIDANVDAIVVIAGSSNALDRVISDACDKGIAVVNFDSLVNTDKVTAKINTDSNEWGATAAKWMVSQLGGKGKIIIMNGPAGISVSDDRRKGAQPVLDANPGLQVITETNTEYNVAPAQEAMTSLLFANPEIDGVLSLGGALSAGSVLAFERQGRDQVPTTGENARQFLELWKEKGLKGWATMQPNWLGALSVYTAVQALEGKDVPAFVKVPLPVIDDSTIGSYLARADKFPADGYIYSDYDKALFDKLLATKEGHHHHHH | soluble
MSLKDRFDRFIDYFTEDEDSSLPYEKRDEPVFTSVNSSQEPALPMNQPSQSAGTKENNITRLHARQQELANQSQRATDKVIIDVRYPRKYEDATEIVDLLAGNESILIDFQYMTEVQARRCLDYLDGACHVLAGNLKKVASTMYLLTPVNVIVNVEDIRLPDEDQQGEFGFDMKRNRVRLEHHHHHH | not soluble
MSLKHHGKIKIKHAVKVLKVSRSGFYEYMHRRPSKQQVEREILSEKIKAVFHEHKGRYGAVRITKVLHNTGIMTNTKRVGKLMHLMGLYAKGSRYKYKHYNRKGASLSRPNLINQIFKATAPNKVWLGDMTYIPTKEGTLYLAVNIDVFSRKIVGWSMSSRMQDKLVRDCFLQACGKEHPQPGLIVHTDQGSQYTSSRYQSTLRQVGAQSSMSRKGNPYDNAMMESFYKTLKRELINDAHFETRAEATQEIFKYIETYYNTKRMHSGLDYKSPKDFEKYNSEGHHHHHH | not soluble
MSLKIAKVEALSVAMGDGTGWMPTSAFVRITAEDGTVGWGEASPMLGGIASLGVVARDIAPFLEGQEVLDHAVLLDRMMHRLVKLGPEGIATAALAACDIALWDLKGKLLGQPIYKLLGGAWRTRLPCYSSIGGNAARSVDEVVREVARRVEAEQPAAVKIRWDGDRTRCDVDIPGDIAKARAVRELLGPDAVIGFDANNGYSVGGAIRVGRALEDLGYSWFEEPVQHYHVGAMGEVAQRLDITVSAGEQTYTLQALKDLILSGVRMVQPDIVKMGGITGMMQCAALAHAHGVEFVPHQTQPGVGHFANIHVLSTLMHMTKPVELADRWDRGRPVFRNPAEPVDGHFALGDAPGLGIVVDEDELASRATEITVGRDQRPPAGGQYEGHHHHHH | soluble
MSLKIAVLDDYQDAVRKLDCFSLLQDHEVKVFNNTVKGVGQLAARVADVEAIVLIRERTRVTRQLLDRLPKLKIISQTGRVSRDAGGHIDLEACTDKGVVVLEGKGSPVAPAELTWALVMAAQRRIPQYVASLKHGAWQQSGLKSTTMPPNFGIGRVLKGQTLGIFGYGKIGQLVAGYGRAFGMNVLVWGRENSKERARADGFAVAESKDALFEQSDVLSVHLRLNDETRGIVTVADLTRMKPTALFVNTSRAELVEENGMVTALNRGRPGMAAIDVFETEPILQGHTLLRMENCICTPHIGYVERESYEMYFGIAFQNILDILQGNVDSVANPTALAPALIRAEGHHHHHH | soluble
MSLKIIVIGGGAAGMSAASKAKRVNPDSEVIVVESGSYVSYAECGIPYYLQGVVGHIEDLLHYPLSEFTEKRGIKVLLHTTVTRIDTLHSSVLLNNGDVLKYDRLIIATGSRPKPIDVISDRTISIRSLESAMRARNLIEKSKDVTIVGAGVLGVELASVLAESGKNVKVISKYDRVLPQLDEDIGKIFHEYFSSRIDVQKQSSLKSAEEDRGRVKITTSVDDHECDAVIYATGIIPNSEIAVEAGIKTGDRNAILTNGHMETSEPGVYAAGDVATVRNIVTGLDEMMPLAQIANKAGRVAGSNASNSEMVFPGALGTTLVKVFDYEVGFTGINESRAKALGIPYEKTLIKAKSRANYYPGKQDIYVKIIYGKNDKRLLGAQVIGTDGAAWRLNTIATAIFGGFKVSDLFYDDLGYTPPFGPVWDSIVIAGSVSMREGHHHHHH | soluble
MSLKINVAPENPQYRIVEIFESLQGEGWNTGMPAVFVRLGKCNLACGWCDTDYLTFGMMGLSDILGRLKTYAARNIIITGGEPTIQPHLDMLLDTLKAEGYFLCLETNGLNPAPPQIDYVATSPKACYAAKYENSCIETADEVRIVADGDVLAFCENMERKIRAHHYYLSPCEQDGAMNIYDTIRQIGILNSRPDASVHWQLSVQTHKWAGIEEGHHHHHH | soluble

Source: the DeepSol protein solubility set
